Data as given in paper PMC3066130, “Molecular Architecture of the Human Mediator–RNA Polymerase II–TFIIF Assembly” (PLoS Biology, 2011).

Target: T1, human RNA polymerase II (12-subunit enzyme) (human, UniProt P24928 1-1970; P30876 1-1174; P19387 1-275; O15514 1-142; P19388 1-210; P61218 …)
T1 construct: RPB1, largest subunit of human pol II; RPB2, subunit of human pol II; RPB3, subunit of human pol II; RPB4, subunit of human pol II; RPB5, subunit of human pol II; RPB6, subunit of human pol II; RPB7, subunit of human pol II; RPB8, subunit of human pol II; RPB9, subunit of human pol II; RPB10, subunit of human pol II; RPB11, subunit of human pol II; RPB12, subunit of human pol II; The CTD of RPB1 …
Assay: co-sedimentation
Conditions: both partners purified

B1: human TFIIF (Rap74 and Rap30) (complex)
chain 1: MAALGPSSQNVTEYVVRVPKNTTKKYNIMAFNAADKVNFATWNQARLERDLSNKKIYQEEEMPESGAGSEFNRKLREEARRKKYGIVLKEFRPEDQPWLLRVNGKSGRKFKGIKKGGVTENTSYYIFTQCPDGAFEAFPVHNWYNFTPLARHRTLTAEEAEEEWERRNKVLNHFSIMQQRRLKDQDQDEDEEEKEKRGRRKASELRIHDLEDDLEMSSDASDASGEEGGRVPKAKKKAPLAKGGRKKKKKKGSDDEAFEDSDDGDFEGQEVDYMSDGSSSSQEEPESKAKAPQQEEGPKGVDEQSDSSEESEEEKPPEEDKEEEEEKKAPTPQEKKRRKDSSEESDSSEESDIDSEASSALFMAKKKTPPKRERKPSGGSSRGNSRPGTPSAEGGSTSSTLRAAASKLEQGKRVSEMPAAKRLRLDTGPQSLSGKSTPQPPSGKTTPNSGDVQVTEDAVRRYLTRKPMTTKDLLKKFQTKKTGLSSEQTVNVLAQILKRLNPERKMINDKMHFSLKE
chain 2: MAERGELDLTGAKQNTGVWLVKVPKYLSQQWAKASGRGEVGKLRIAKTQGRTEVSFTLNEDLANIHDIGGKPASVSAPREHPFVLQSVGGQTLTVFTESSSDKLSLEGIVVQRAECRPAASENYMRLKRLQIEESSKPVRLSQQLDKVVTTNYKPVANHQYNIEYERKKKEDGKRARADKQHVLDMLFSAFEKHQYYNLKDLVDITKQPVVYLKEILKEIGVQNVKGIHKNTWELKPEYRHYQGEEKSD
notes: Rap74, large subunit of human TFIIF; Rap30, small subunit of human TFIIF; also called dimeric TFIIF complex
B1: binds.
